In the experiment the target is His-NDR1^3E (human) (UniProt Q15208).
His-NDR1^3E (human), sequence (Q15208 other isoform, or with tags, fused parts or gaps): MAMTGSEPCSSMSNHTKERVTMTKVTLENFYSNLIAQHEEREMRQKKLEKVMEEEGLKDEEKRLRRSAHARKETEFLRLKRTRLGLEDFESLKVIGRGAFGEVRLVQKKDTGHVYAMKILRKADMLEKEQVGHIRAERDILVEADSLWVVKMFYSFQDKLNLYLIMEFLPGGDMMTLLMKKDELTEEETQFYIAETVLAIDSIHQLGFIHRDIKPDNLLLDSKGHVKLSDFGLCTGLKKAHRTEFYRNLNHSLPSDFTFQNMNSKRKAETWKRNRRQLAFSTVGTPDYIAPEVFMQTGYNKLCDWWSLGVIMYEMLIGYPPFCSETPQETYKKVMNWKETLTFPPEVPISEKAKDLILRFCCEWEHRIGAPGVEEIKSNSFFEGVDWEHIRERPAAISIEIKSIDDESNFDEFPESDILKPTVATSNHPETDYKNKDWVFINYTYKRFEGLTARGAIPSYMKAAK

B1: 10-mer NDR1 substrate peptide (peptide)
peptide: KKRNRRLSVA
On to B1, for which the Km toward the 10-mer substrate peptide SP in a fluorimetric kinase assay, relative to wild type NDR1 amounted to 1.7 fold.

For the origin of these results see PMC4460818.
